# Data reported in patent US20190382493A1 (CYTOMX THERAPEUTICS, published 2019).
# T1: human B7-1-Fc (R&D Systems) (human, UniProt P33681 35-242)
# T1 construct: not shown: Fc part of the bought fusion protein; not described
# T1 sequence (looked up): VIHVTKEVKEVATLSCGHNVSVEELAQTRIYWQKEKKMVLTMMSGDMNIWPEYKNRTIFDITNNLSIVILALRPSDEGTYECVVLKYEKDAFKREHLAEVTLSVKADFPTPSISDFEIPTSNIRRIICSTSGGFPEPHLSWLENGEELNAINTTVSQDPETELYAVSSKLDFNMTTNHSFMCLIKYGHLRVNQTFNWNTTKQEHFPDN
# T2: human B7H3 (R&D Systems) (human, UniProt Q5ZPR3-2 29-245, limits assumed)
# T2 sequence (looked up): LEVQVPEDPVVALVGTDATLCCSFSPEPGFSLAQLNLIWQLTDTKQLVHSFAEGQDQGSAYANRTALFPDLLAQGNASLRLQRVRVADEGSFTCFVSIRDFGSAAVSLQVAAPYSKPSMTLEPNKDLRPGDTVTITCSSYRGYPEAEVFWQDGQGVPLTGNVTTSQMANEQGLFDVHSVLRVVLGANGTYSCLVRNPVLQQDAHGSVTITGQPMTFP
# Legend:
# human PDL1 (R&D Systems) = target: T3, human PDL1 (R&D Systems) (human, UniProt Q9NZQ7 19-239); experiment: phage ELISA, antigen adsorbed, anti-M13-HRP
# T3 construct: also called hPDL1; recombinant human PDL1 protein
# From the text: (§1) Phage were applied to the plate and allowed to bind. Bound phage were visualized with an anti-M13-HRP conjugate (GE Healthcare, Piscataway, N.Y.) and developed with the chromogenic substrate tetramethyl benzidine (TMB) (Thermo Scientific, Rockford, Ill.).
# mouse PDL1 (R&D Systems) = target: T4, mouse PDL1 (R&D Systems) (mouse, UniProt Q9EP73 19-238); experiment: phage ELISA, antigen adsorbed, anti-M13-HRP
# T4 construct: also called mPDL1; murine PDL1
# From the text: as §1
# [1] = target: T1, human B7-1-Fc (R&D Systems); experiment: ELISA, antigen adsorbed
# Protocol: (§2) Bound antibody was visualized with an anti-human IgG-HRP conjugate, Fab specific, (Sigma, St Louis, Mo.; Cat # A0293-1ML) and developed with the chromogenic substrate TMB.
# [2] = target: T5, human CD28-Fc (R&D Systems) (human, UniProt P10747 19-152); experiment: ELISA, antigen adsorbed
# T5 construct: not shown: Fc part of the bought fusion protein; not described
# Protocol: as §2
# human B7H3 (R&D Systems) = target: T2, human B7H3 (R&D Systems); experiment: ELISA, antigen adsorbed
# Protocol: as §2
# [3] = target: T6, human PDL1-Fc (R & D Systems) (human, UniProt Q9NZQ7 19-239); experiment: ELISA, PDL1-Fc adsorbed, anti-human IgG (Fab specific)-HRP
# T6 construct: Bought reagent; not shown: Fc part of the bought fusion protein; not described
# Protocol: (§3) Bound antibody was visualized with an anti-human IgG-HRP conjugate, Fab specific, (Sigma, St Louis, Mo.; Cat # A0293-1ML) and developed with the chromogenic substrate TMB. […] Table 5 provides the SEQ ID NOs for the nucleic acid sequences and amino acids sequences of the respective variable heavy chains.
# as §2
# [4] = target: T7, mouse PDL1-Fc (R & D Systems) (mouse, UniProt Q9EP73 19-238); experiment: as above
# T7 construct: Bought reagent; not shown: Fc part of the bought fusion protein; not described
# Protocol: as §3, §2
# [5] = target: T1, human B7-1-Fc (R&D Systems); experiment: Fab-phage ELISA, antigen adsorbed
# From the text: (§4) Forty seven (47) individual isolates were chosen from the final pool. […] Briefly, the antigens were adsorbed to the wells of a 96-well ELISA plate, each ligand on a separate plate. Phage were applied to correlative wells on each plate and allowed to bind. Bound phage were visualized with an anti-M13-HRP conjugate and developed with the chromogenic substrate TMB. Based on the results of the ELISA and DNA sequence, 6 unique clones with matured heavy variable CDR3 domains and 10 heavy variable CDR2 domains were chosen for further study. […] Table 4 lists the heavy variable domains encoded by the clones and SEQ ID NOs for the nucleic acid sequences and amino acid sequences of their respective heavy chains.
# [6] = target: T6, human PDL1-Fc (R & D Systems); experiment: Fab-phage ELISA, antigen adsorbed
# From the text: as §4
# [7] = target: T6, human PDL1-Fc (R & D Systems); experiment: ELISA, PDL1 adsorbed
# Protocol: as §2
# [8] = target: T7, mouse PDL1-Fc (R & D Systems); experiment: ELISA, PDL1 adsorbed
# Protocol: as §2
# [9] = target: T8, cynomolgus monkey (cyno) PDL1-Fc (Sino biological) (cynomolgus monkey, UniProt G7PSE7 19-239); experiment: ELISA, PDL1 adsorbed
# T8 construct: Bought reagent; not shown: Fc part of the bought fusion protein; not described
# Protocol: as §2
# rat PDL1 = rat PDL1 (rat, UniProt D4AE25 19-239); experiment: ELISA, PDL1 adsorbed
# Protocol: as §2
# [10] = target: T6, human PDL1-Fc (R & D Systems); experiment: ELISA saturation binding (figure legend)
# Protocol: as §2
# [11] = target: T6, human PDL1-Fc (R & D Systems); experiment: ELISA saturation binding, PDL1-Fc adsorbed
# Protocol: as §2
# [12] = target: T7, mouse PDL1-Fc (R & D Systems); experiment: ELISA saturation binding, PDL1-Fc adsorbed
# Protocol: as §2
# T6 sequence (Q9NZQ7 19-239 limits assumed): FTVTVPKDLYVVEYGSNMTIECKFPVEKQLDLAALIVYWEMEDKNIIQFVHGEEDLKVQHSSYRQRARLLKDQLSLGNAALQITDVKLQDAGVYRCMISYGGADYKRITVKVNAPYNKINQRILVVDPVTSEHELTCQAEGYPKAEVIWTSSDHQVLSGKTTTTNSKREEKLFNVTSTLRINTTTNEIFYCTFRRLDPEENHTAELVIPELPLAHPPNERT
# T7 sequence (Q9EP73 19-238 limits assumed): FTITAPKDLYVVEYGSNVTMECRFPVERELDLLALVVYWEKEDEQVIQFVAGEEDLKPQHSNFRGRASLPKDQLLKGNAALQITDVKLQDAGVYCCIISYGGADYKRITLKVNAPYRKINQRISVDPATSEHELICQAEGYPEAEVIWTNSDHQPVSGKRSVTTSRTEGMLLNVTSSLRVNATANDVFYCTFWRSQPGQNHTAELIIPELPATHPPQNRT
# T8 sequence (G7PSE7 entry or part of it): as the sequence (Q9NZQ7 19-239 limits assumed) above, with A33T, A34S, S62N, R68Q, Q82R, F173L, T185A, T192I, H215L counted along it
# T3 sequence (Q9NZQ7 19-239 limits assumed): as the sequence (Q9NZQ7 19-239 limits assumed) above
# T4 sequence (Q9EP73 19-238 limits assumed): as the sequence (Q9EP73 19-238 limits assumed) above
# Sequence of rat PDL1 (D4AE25 entry or part of it limits assumed, form in doubt): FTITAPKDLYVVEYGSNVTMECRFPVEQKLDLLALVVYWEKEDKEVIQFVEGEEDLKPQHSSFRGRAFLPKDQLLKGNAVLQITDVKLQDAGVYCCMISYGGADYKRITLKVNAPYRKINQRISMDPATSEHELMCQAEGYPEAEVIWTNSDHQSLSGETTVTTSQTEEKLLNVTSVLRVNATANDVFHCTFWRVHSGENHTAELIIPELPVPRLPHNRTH
binder,measurement,setting,value
"PDL1 c60 ScFv-phage (scFv, also called clone 60) scFv: EVQLLESGGGLVQPGGSLRLSCAASGFTFSSYAMSWVRQAPGKGLEWVSSIYSTGGATAYADSVKGRFTISRDNSKNTLYLQMNSLRAEDTAVYYCAKSSAGFDYWGQGTLVTVSSGGGGSGGGGSGGGGSTDIQMTQSPSSLSASVGDRVTITCRASQSISSYLNWYQQKPGKAPKLLIYYASTLQSGVPSRFSGSGSGTDFTLTISSLQPEDFATYYCQQDNGYPSTFGQGTKVEIKR",binding result,human PDL1 (R&D Systems),binds
same,binding result,mouse PDL1 (R&D Systems),binds
"anti-PDL1 antibody C5H9 (antibody, V domains shown, Fully human IgG; also called PDL1 C5H9) VH: EVQLLESGGGLVQPGGSLRLSCAASGFTFSSYAMSWVRQAPGKGLEWVSSIWRNGIVTVYADSVKGRFTISRDNSKNTLYLQMNSLRAEDTAVYYCAKWSAAFDYWGQGTLVTVSS VL: DIQMTQSPSSLSASVGDRVTITCRASQSISSYLNWYQQKPGKAPKLLIYYASTLQSGVPSRFSGSGSGTDFTLTISSLQPEDFATYYCQQDNGYPSTFGQGTKVEIKR",binding result,[1],no binding
same,binding result,[2],no binding
same,binding result,human B7H3 (R&D Systems),no binding
same,binding result,[3],binds
same,binding result,[4],binds
"PDL1 h9 Fab-phage (Fab, V domains shown, also called CDR3 clone H9) VH: not shown VL: DIQMTQSPSSLSASVGDRVTITCRASQSISSYLNWYQQKPGKAPKLLIYYASTLQSGVPSRFSGSGSGTDFTLTISSLQPEDFATYYCQQDNGYPSTFGQGTKVEIKR",binding result,[5],no binding
same,binding result,[6],binds
"anti-PDL1 antibody C5H9v2 (antibody, V domains shown, IgG; also called anti-PDL1 parental antibody C5H9v2) VH: EVQLLESGGGLVQPGGSLRLSCAASGFTFSSYAMSWVRQAPGKGLEWVSSIWRNGIVTVYADSVKGRFTISRDNSKNTLYLQMNSLRAEDTAVYYCAKWSAAFDYWGQGTLVTVSS VL: DIQMTQSPSSLSASVGDRVTITCRASQSISSYLNWYQQKPGKAPKLLIYAASSLQSGVPSRFSGSGSGTDFTLTISSLQPEDFATYYCQQDNGYPSTFGGGTKVEIKR",EC50,[7],0.25 nM
same,EC50,[8],0.3 nM
same,EC50,[9],0.28 nM
same,EC50,rat PDL1,0.31 nM
"fully human anti-PDL1 c60 IgG (antibody, V domains shown, Fully human IgG with the variable domains of PDL1 c60; also called anti-PDL1 clone 60:IgG) VH: EVQLLESGGGLVQPGGSLRLSCAASGFTFSSYAMSWVRQAPGKGLEWVSSIYSTGGATAYADSVKGRFTISRDNSKNTLYLQMNSLRAEDTAVYYCAKSSAGFDYWGQGTLVTVSS VL: DIQMTQSPSSLSASVGDRVTITCRASQSISSYLNWYQQKPGKAPKLLIYYASTLQSGVPSRFSGSGSGTDFTLTISSLQPEDFATYYCQQDNGYPSTFGQGTKVEIKR",Kd,[10],~1 nM
same,Kd,[11],1 nM
same,Kd,[12],30 nM
